Tests used:
[1] = biological target: T1, soluble extracellular D2-D3 region of human FGFR1c (Asp142-Arg365) (human, UniProt P11362 142-365); assay: SPR
T1 chain: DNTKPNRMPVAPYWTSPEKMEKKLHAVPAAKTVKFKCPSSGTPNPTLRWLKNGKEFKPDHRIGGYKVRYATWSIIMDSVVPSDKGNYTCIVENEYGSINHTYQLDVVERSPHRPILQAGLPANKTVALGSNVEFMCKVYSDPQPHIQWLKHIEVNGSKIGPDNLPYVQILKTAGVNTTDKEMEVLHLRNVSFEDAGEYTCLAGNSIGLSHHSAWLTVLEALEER

[2] = biological target: T2, soluble extracellular D2-D3 region of human FGFR1c (Asp142-Arg365) (human, UniProt P11362 142-365); assay: SPR; BIAcore T200; HBS-EP buffer (10 mM HEPES-NaOH, pH 7.4, 150 mM NaCl, 3 mM EDTA, 0.005% Surfactant P20); which partner was immobilised is not told in the main text; settings: both partners purified
T2 construct: fibroblast growth factor receptor 1, 'c' splice isoform, human, extracellular D2-D3 region, residues Asp142-Arg365; also called FGFR1c ectodomain; FGFR1c isoform; source: E. coli (BL21), purified
T2 sequence (looked up): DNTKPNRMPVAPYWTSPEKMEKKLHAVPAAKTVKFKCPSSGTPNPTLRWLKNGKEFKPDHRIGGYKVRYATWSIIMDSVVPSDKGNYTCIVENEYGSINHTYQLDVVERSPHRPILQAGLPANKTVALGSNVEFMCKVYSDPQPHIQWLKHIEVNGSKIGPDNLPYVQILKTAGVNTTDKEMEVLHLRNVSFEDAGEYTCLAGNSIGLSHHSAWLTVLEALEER

B1: N-terminally truncated human FGF4 (rFGF4) (Ala67-Leu206) (domain or fragment, UniProt P08620 67-206, looked up)
chain: AAVQSGAGDYLLGIKRLRRLYCNVGIGFHLQALPDGRIGGAHADTRDSLLELSPVERGVVSIFGVASRFFVAMSSKGKLYGSPFFTDECTFKEILLPNNYNAYESYKYPGMFIALSKNGKTKKGNRVSPTMKVTHFLPRL
notes: fibroblast growth factor 4, human, engineered N-terminal truncation, residues Ala67-Leu206; also called truncated rFGF4; source: E. coli (BL21), purified
Kd [1]: 716 nM
binding result [2]: binds

B2: full length mature form human FGF4 (mFGF4) (Ala31-Leu206) (ligand, UniProt P08620 31-206, looked up)
chain: APTAPNGTLEAELERRWESLVALSLARLPVAAQPKEAAVQSGAGDYLLGIKRLRRLYCNVGIGFHLQALPDGRIGGAHADTRDSLLELSPVERGVVSIFGVASRFFVAMSSKGKLYGSPFFTDECTFKEILLPNNYNAYESYKYPGMFIALSKNGKTKKGNRVSPTMKVTHFLPRL
notes: fibroblast growth factor 4, human, full length mature form, residues Ala31-Leu206; also called wild-type parent molecule; source: E. coli (BL21), purified
Kd [1]: 464 nM
binding result [2]: binds

Source: paper PMC8671394, “Paracrine FGFs target skeletal muscle to exert potent anti-hyperglycemic effects” (Nature Communications, 2021)
